Measurements: patent publication US7510845B2, “Assay employing G protein-coupled receptor expressed in dorsal root ganglia” (California Institute of Technology, priority 2000, dated 2009)
“Also recorded” adds a separate entry of the source. Values belong to the compound of their own block, whether it stands above or below them. Ends that are not written are not given here.

What was measured:
MRGA1 [1] = target: T1, MRGA1 (Mus musculus, UniProt Q91WW5); assay: Intracellular Ca2+ release assay (Fura-2), MRGA1-GFP in HEK-Gα15 cells; assay type: cell-based; conditions: for Calcium response of MRGA1-expressing cells to ligand: HEK-Gα15 cells, ligand 1 μM; for Activation of MrgA1 in dose-response experiments: HEK cells expressing Gα15
T1 construct: cDNAs encoding eight full-length variants of Mrg receptors (mMrgA1-8) are provided; expressed in transfected cells; host or cells: HEK293-Galpha15 (A1) or HEK293 lacking Galpha15 (A4), transient transfection with FuGENE 6
T1 sequence (Q91WW5 1-304): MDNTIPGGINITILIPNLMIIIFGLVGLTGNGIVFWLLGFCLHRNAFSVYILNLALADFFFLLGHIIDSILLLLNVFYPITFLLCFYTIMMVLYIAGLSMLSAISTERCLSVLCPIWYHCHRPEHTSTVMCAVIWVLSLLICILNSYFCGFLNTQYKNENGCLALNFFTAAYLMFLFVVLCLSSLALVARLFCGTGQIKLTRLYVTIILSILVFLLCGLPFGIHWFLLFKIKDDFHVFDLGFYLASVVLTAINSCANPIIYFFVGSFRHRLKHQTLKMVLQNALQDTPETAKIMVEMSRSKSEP
Procedure: (§1) To identify ligands for the Mrg receptors, selected MrgA genes were tested in a calcium release assay. MrgA genes, including MrgA1 and MrgA4, were cloned into a eukaryotic expression vector and transfected into human embryonic kidney (HEK) 293 cells. HEK-293 cells were obtained from the ATCC and cultured in DMEM supplemented with 10% fetal bovine serum. An HEK293-Gα15 cell line stably expressing Gα15 was provided by Aurora Biosciences Corporation and grown on Matrigel™ (growth factor reduced Matrigel, Becton Dickinson, diluted 1:200 with serum-free DMEM)-coated flasks and maintained at 37° C. in DMEM (GibcoBRL) supplemented with 10% heat-inactivated fetal bovine serum, 2 mM L-glutamine, 0.1 mM non-essential amino acids, 1 mM sodium pyruvate, 25 mM HEPES and 3 μg/ml blastcidin-S. For transfection, cells were seeded on Matrigel-coated 35 mm glass-bottom dishes (Bioptech Inc., Butler, Pa.). After 16-24 hr, cells were transfected using FuGENE 6 (Roche).
(§2) To increase the sensitivity of the calcium release assay, in some experiments the MRGA-GFP fusion proteins were expressed in HEK 293 cells modified to express Gα15, which couples GPCRs to a signal transduction pathway leading to the release of intracellular free Ca^2+ (Offermann and Simon J Biol Chem 270: 15175-80 (1995)). This calcium release can be monitored ratiometrically using Fura-2 as a fluorescent indicator dye (Tsien et al. Cell Calcium 6: 145-57 (1985)) (FIGS. 11A-C). This heterologous expression system has been previously used to identify ligands for taste receptors (Chandrashekar et al. Cell 100: 703-11 (2000)).
(§3) Briefly, transfected cells were washed once in Hank's balanced salt solution with 11 mM D-glucose and 10 mM HEPES, pH 7.4 (assay buffer) and loaded with 2 μM Fura-2 AM (Molecular Probes) at room temperature for 90 min, with rotation. Loaded cells were washed twice with assay buffer and placed on a micro-perfusion chamber (Bioptech). The chamber was mounted on top of a Olympus IMT2 inverted microscope, and imaged with an Olympus DPlanApo 40× oil immersion objective lens. Samples were illuminated by a 75 W xenon bulb, and a computer-controlled filter changer (Lambda-10; Shutter Instruments) was used to switch the excitation wavelength. A cooled CCD camera (Photometric) was used in detecting fluorescence. GFP-positive cells within a field were identified using an excitation wavelength of 400 nm, a dichroic 505 nm long-pass filter and an emitter bandpass of 535 nm (Chroma Technology). In the same field, calcium measurements were performed at an excitation wavelength of 340 nm and 380 nm, and an emission wavelength of 510 nm. Agonists were diluted in assay buffer and solution changes accomplished by micro-perfusion pump (Bioptech). Fura-2 fluorescence signals (340 nm, 380 nm and the 340/380 ratio) originating from GFP-positive cells were continuously monitored at 0.4- or 1-second intervals and collected using Axon Imaging Workbench 4.0 software (Axon). Instrument calibration was carried out with standard calcium solutions (Molecular probes) in glass bottom dishes (MatTek Corp.).

MRGA4 [2] = target: T2, MRGA4 (Mus musculus, UniProt Q91WW2, A204G); assay: Intracellular Ca2+ release assay (Fura-2), MRGA4-GFP in HEK-Gα15 cells; assay type: cell-based; conditions: HEK cells expressing Gα15
T2 construct: cDNAs encoding eight full-length variants of Mrg receptors (mMrgA1-8) are provided; expressed in transfected cells; host or cells: HEK293-Galpha15 (A2) or HEK293 lacking Galpha15 (A5), transient transfection with FuGENE 6
T2 sequence (Q91WW2 9-313 A204G limits assumed): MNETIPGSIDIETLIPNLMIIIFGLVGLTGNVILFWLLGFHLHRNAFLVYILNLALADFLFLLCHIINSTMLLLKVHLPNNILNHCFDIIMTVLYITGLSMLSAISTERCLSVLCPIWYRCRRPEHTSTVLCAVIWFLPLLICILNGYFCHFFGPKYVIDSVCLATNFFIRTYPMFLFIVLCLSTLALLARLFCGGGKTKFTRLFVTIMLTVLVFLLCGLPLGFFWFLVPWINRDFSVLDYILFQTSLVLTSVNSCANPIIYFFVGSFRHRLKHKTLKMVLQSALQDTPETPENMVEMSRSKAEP
Procedure: To identify ligands for the Mrg receptors, selected MrgA genes were tested in a calcium release assay. MrgA genes, including MrgA1 and MrgA4, were cloned into a eukaryotic expression vector and transfected into human embryonic kidney (HEK) 293 cells. HEK-293 cells were obtained from the ATCC and cultured in DMEM supplemented with 10% fetal bovine serum. […]
as §2, with “This heterologous expression system has been previously used to identify ligands for taste receptors (Chandrashekar et al. Cell 100: 703-11 (2000)).” left out
Briefly, transfected cells were washed once in Hank's balanced salt solution with 11 mM D-glucose and 10 mM HEPES, pH 7.4 (assay buffer) and loaded with 2 μM Fura-2 AM (Molecular Probes) at room temperature for 90 min, with rotation. […] A cooled CCD camera (Photometric) was used in detecting fluorescence. […] Fura-2 fluorescence signals (340 nm, 380 nm and the 340/380 ratio) originating from GFP-positive cells were continuously monitored at 0.4- or 1-second intervals and collected using Axon Imaging Workbench 4.0 software (Axon). […]

MAS1 = assay: Intracellular Ca2+ release assay (Fura-2), MAS1 in HEK-Gα15 cells; assay type: cell-based; conditions: for Activation of MAS1: HEK-Gα15 cells
MRGA1 [3] = target: T1, MRGA1; assay: Intracellular Ca2+ release assay, MRGA1 in HEK cells lacking Gα15; assay type: cell-based; conditions: ligand 1 μM
Procedure: as §1, with “(Roche). Transfection efficiencies were estimated by visualization of GFP fused to the C-terminus of MrgA1 and A4, and were typically >60%. Fusing GFP to the C-termini of the MrgA coding sequences additionally allowed for visual confirmation of the intracellular distribution of the receptors and their membrane integration in the transfected cells (FIG. 11D).” for “(Roche).”
as §3, with “Corp.). […]” for “Corp.).”

[4] = test system: chronic pain models, including neuropathic pain; conditions: intrathecal injection; several chronic pain models; cited from earlier work
MRGA4 [5] = target: T2, MRGA4; assay: Intracellular Ca2+ release assay, MRGA4 in HEK cells lacking Gα15; assay type: cell-based; conditions: ligand 1 μM
Procedure: as §1, with “(Roche). Transfection efficiencies were estimated by visualization of GFP fused to the C-terminus of MrgA1 and A4, and were typically >60%. Fusing GFP to the C-termini of the MrgA coding sequences additionally allowed for visual confirmation of the intracellular distribution of the receptors and their membrane integration in the transfected cells (FIG. 11D).” for “(Roche).”
as §3, with “Corp.). […]” for “Corp.).”

Calcium response of MRGA1-expressing cells to ligand (MRGA1 [1]): did not activate
Compound: neurokinin B: peptide hormone

Compound: RFRP-1: RFamide ligand produced from a different precursor (MPHSFANLPLRF; ends and bridges not checked; UniProt Q9HCQ7 81-92, looked up)
Activation of MrgA4 in dose-response experiments (MRGA4 [2]): Neither receptor showed strong activation
Activation of MrgA1 in dose-response experiments (MRGA1 [1]): Neither receptor showed strong activation

Calcium response of MRGA1-expressing cells to ligand (MRGA1 [1]): weakly activated
Compound: schistoFLRF: RFamide ligand, SEQ ID NO: 115 (PDVDHVFLRF; ends and bridges not checked)

Calcium response of MRGA1-expressing cells to ligand (MRGA1 [1]): only very weakly activated
Compound: CCCCC/C=C\C/C=C\C/C=C\C/C=C\CCCC(=O)O [Arachidonic Acid]

Calcium response of MRGA1-expressing cells to ligand (MRGA1 [1]): most efficient responses
Calcium response of MRGA1-expressing cells to ligand (MRGA1 [1]; listed as FMRF): strongest responses
Compound: Phe-Met-Arg-Phe-amide [FMRFamide]

Compound: Angiotensin I: peptide hormone previously reported to activate MAS1 (DRVYIHPFHL; Angiotensin-1; UniProt P01019 25-34, looked up)
Activation of MAS1 (MAS1): No response was detected

Calcium response of MRGA1-expressing cells to ligand (MRGA1 [1]): did not activate
Compound: neurokinin A: peptide hormone

Compound: AGEGLNSQFWSLAAPQRF-NH2 [NPAF]
Calcium response of MRGA1-expressing cells to ligand (MRGA1 [3]): no response
EC50 (MAS1; HEK cells, RF-amide ligands, read-out: Relative efficacy of activation of MAS1): > 1000 nM
Activation of MAS1 (MAS1): did not respond well
Antinociceptive effect [4]: long-lasting antinociceptive effects
Calcium response of MRGA4-expressing cells to ligand (MRGA4 [5]): respond
Activation of MrgA1 in dose-response experiments (MRGA1 [1]): much less effective
Calcium response of MRGA1-expressing cells to ligand (MRGA1 [1]): significantly lower

Calcium response of MRGA1-expressing cells to ligand (MRGA1 [1]): only very weakly activated
Compound: CCCCC[C@H](O)/C=C/[C@H]1[C@H](O)CC(=O)[C@@H]1CCCCCCC(=O)O [Prostaglandin-E1]

Calcium response of MRGA1-expressing cells to ligand (MRGA1 [3]): considerably diminished
Calcium response of MRGA4-expressing cells to ligand (MRGA4 [5]): considerably diminished
Compound: SYSMEHFRWGKPVGKKRRPVKVYPNGAEDESAEAFPLEF [ACTH]
Activation of MAS1 (MAS1): Nor did MAS1 respond
Calcium response of MRGA1-expressing cells to ligand (MRGA1 [1]): some level of activation; also recorded: strongest responses

Calcium response of MRGA1-expressing cells to ligand (MRGA1 [3]): considerably diminished
Calcium response of MRGA4-expressing cells to ligand (MRGA4 [5]): considerably diminished
Compound: CGRP-II: neuropeptide, calcitonin gene-related peptide
Calcium response of MRGA1-expressing cells to ligand (MRGA1 [1]): some level of activation; also recorded: strongest responses

Compound: RFRP-2: RFamide ligand produced from a different precursor (SAGATANLPLRS; ends and bridges not checked; UniProt Q9HCQ7 101-112, looked up)
Activation of MrgA4 in dose-response experiments (MRGA4 [2]): Neither receptor showed strong activation
Activation of MrgA1 in dose-response experiments (MRGA1 [1]): Neither receptor showed strong activation

Compound: Angiotensin II: peptide hormone previously reported to activate MAS1 (DRVYIHPF; Angiotensin-2; UniProt P01019 25-32, looked up)
Activation of MAS1 (MAS1): No response was detected

Compound: NPY: neuropeptide
Calcium response of MRGA1-expressing cells to ligand (MRGA1 [3]): lost completely
Calcium response of MRGA4-expressing cells to ligand (MRGA4 [5]): lost completely
Calcium response of MRGA1-expressing cells to ligand (MRGA1 [1]): some level of activation; also recorded: strongest responses
